Data set [1] has as its target T1, AlkB (Escherichia coli, UniProt P05050 1-216).
T1 sequence: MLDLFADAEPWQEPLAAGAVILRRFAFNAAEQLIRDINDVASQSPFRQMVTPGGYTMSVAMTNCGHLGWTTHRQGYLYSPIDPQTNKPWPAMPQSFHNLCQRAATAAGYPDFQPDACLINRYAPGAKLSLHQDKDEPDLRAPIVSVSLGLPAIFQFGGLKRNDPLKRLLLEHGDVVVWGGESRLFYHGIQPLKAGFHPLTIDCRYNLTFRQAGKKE
The data set is described as follows: stopped-flow 2aPu fluorescence, global fit (enzyme-product complex); Fe(II), aKG; after turnover; 50 mM HEPES-KOH pH 7.5, 50 mM KCl, 10 mM MgCl2, 40 uM Fe(II), 1 mM aKG, 2 mM ascorbate (composition as given for the anaerobic runs); stopped-flow at 37 C; titration temperature not given in the material. The settings on record: protein: recombinant, tags: His6, label: 2-aminopurine.

The target in data set [2] is T1, AlkB. Nature of the data set: stopped-flow Trp fluorescence, from rate constants of steps 1-3; Fe(II), aKG; 50 mM HEPES-KOH pH 7.5, 50 mM KCl, 10 mM MgCl2, 40 uM Fe(II), 1 mM aKG, 2 mM ascorbate (composition as given for the anaerobic runs); stopped-flow at 37 C; titration temperature not given in the material. The settings on record: protein: recombinant; tags: His6; single strand.

For data set [3], the target named is T1, AlkB. The data set is described as follows: stopped-flow FRET, global fit (enzyme-product complex); Fe(II), aKG; after turnover; 50 mM HEPES-KOH pH 7.5, 50 mM KCl, 10 mM MgCl2, 40 uM Fe(II), 1 mM aKG, 2 mM ascorbate (composition as given for the anaerobic runs); stopped-flow at 37 C; titration temperature not given in the material. To be noted: protein: recombinant, tags: His6, label: 5'-FAM.

Data set [4] has as its target T1, AlkB. The data set is described as follows: stopped-flow FRET; Fe(II), aKG; 50 mM HEPES-KOH pH 7.5, 50 mM KCl, 10 mM MgCl2, 40 uM Fe(II), 1 mM aKG, 2 mM ascorbate (composition as given for the anaerobic runs); stopped-flow at 37 C; titration temperature not given in the material. The settings on record: protein: recombinant; tags: His6; label: 5'-FAM, 3'-BHQ1 on strand 1; blunt.

The text below walks through data of PMC6943663, “A Single-Turnover Kinetic Study of DNA Demethylation Catalyzed by Fe(II)/α-Ketoglutarate-Dependent Dioxygenase AlkB”.

B1: ds15A_2aPu (demethylated product of ds15m1A_2aPu) (dsDNA)
DNA 1: ACAGGAACCGGCATA
DNA 2: TATGCCGGTTCCTGT
modifications: 2-aminopurine at position 7 of strand 1 (written A)
What is called Kd is the free concentration of one partner at which half of the binding sites on the other are occupied at equilibrium, for simple one-to-one binding. In the case of B1, the Kd with AlkB [1] (blunt) amounted to 1800 nM.

B2: ss15m1A (ssDNA)
DNA: ACAGGATCCGGCATA
modifications: N1-methyladenine at position 6
Turning to B2, the Kd with AlkB [2] was 4.3 nM.

B3: ds15A_FRET (demethylated product of ds15m1A_FRET) (dsDNA)
DNA 1: ACAGGATCCGGCATA
DNA 2: TATGCCGGATCCTGT
For B3, the Kd with AlkB [3] (3'-BHQ1 on strand 1, blunt) amounted to 4400 nM.

B4: ss15A_2aPu (demethylated product of ss15m1A_2aPu) (ssDNA)
DNA: ACAGGAACCGGCATA
modifications: 2-aminopurine at position 7 (written A)
With B4, the Kd with AlkB [1] (single strand) amounted to 2200 nM.

B5: ds15m1A_FRET (dsDNA)
DNA 1: ACAGGATCCGGCATA
DNA 2: TATGCCGGATCCTGT
modifications: N1-methyladenine at position 6 of strand 1
As to B5, in the data set with AlkB [4], the binding result is recorded as “binds”.

B6: ss15A_FRET (demethylated product of ss15m1A_FRET) (ssDNA)
DNA: ACAGGATCCGGCATA
Regarding B6, the Kd with AlkB [3] (3'-BHQ1, single strand) amounted to 310 nM.
